The RNAGym collection of RNA variant scans (doi:10.1093/molbev/msab373)

B1: Azoarcus group I ribozyme (parent)
chain: GUGCCUUGCGCCGGGAAACCACGCAAGGGAUGGUGUCAAAUUCGGCGAAACCUAAGCGCCCGCCCGGGCGUAUGGCAACGCCGAGCCAAGCUUCGGCGCCUGCGCCGAUGAAGGUGUAGAGACUAGACGGCACCCACCUAAGGCAAACGCUAUGGUGAAGGCAUAGUCCAGGGAGUGGCGAAAGUCACACAAACCGG

Variants of: B1
Assay: reverse-splicing fitness (ratio to wild type); higher = more active; in vitro selection; Mg2+ level not given
How it was run: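 An in vitro group I ribozyme library with randomized positions was T7-transcribed and gel-purified. In triplicate, 10 pmol RNA in EPPS pH 7.5 was reacted with 50 pmoles of a 30-nt RNA substrate for 1 h at 37 °C across several added MgCl2 levels (1–48 mM), then stopped with EDTA. Products were reverse transcribed from a substrate-complementary primer, PCR-amplified and sequenced (HiSeq 4000). Fitness is a variant's read proportion after selection over that before, normalised to wild type.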
Variant GUGCCUUGCGCCGGGAAACCACGCAAGGGAUGGUGUCAAAUUCGGCGAAACCUAAGCGCCCGCCCGGGCGUAUGGCAACGCUGAGCCAAGCUUCGGCGCCUGCGCCGAUGAAGGUGUAGGGACUAGACGGCACCCACCUAAGGCUAACGGUAUGGUGAAGGCAUAGUCCAGGGAGAGGCGAAAGUCACACAAACCGG [C82U A120G A145U C150G U176A] has a reverse-splicing fitness of 0.00575.
Variant GUGCCUUGCGCCGGGAAACCACGCAAGGGAUGGUGUCAAAUUCGGCGAAACCUAAGCGCCCGCCCGGGCGUAUGGCAACGCUGAGCCAAGCUUCGGCGCCUGCGCCGAUGAAGGUGUAGGGACUAGACGGCACCCACCUAAGGCUAACGGUAUGGUGAAGGCAUAGUCCAGGGAGCGGCGAAAGUCACACAAACCGG [C82U A120G A145U C150G U176C] has a reverse-splicing fitness of 0.00808.
With GUGCCUUGCGCCGGGAAACCACGCAAGGGAUGGUGUCAAAUUCGGCGAAACCUAAGCGCCCGCCCGGGCGUAUGGCAACGCUGAGCCAAGCUUCGGCGCCUGCGCCGAUGAAGGUGUAGGGACUAGACGGCACCCACCUAAGGCUAACGGUAUGGUGAAGGCAUAGUCCAGGGAGGGGCGAAAGUCACACAAACCGG [C82U A120G A145U C150G U176G] the reverse-splicing fitness was 0.00275.
With GUGCCUUGCGCCGGGAAACCACGCAAGGGAUGGUGUCAAAUUCGGCGAAACCUAAGCGCCCGCCCGGGCGUAUGGCAACGCUGAGCCAAGCUUCGGCGCCUGCGCCGAUGAAGGUGUAGGGACUAGACGGCACCCACCUAAGGCUAACGUUAUGGUGAAGGCAUAGUCCAGGGAGUGGCGAAAGUCACACAAACCGG [C82U A120G A145U C150U] the reverse-splicing fitness was 0.0176.
With GUGCCUUGCGCCGGGAAACCACGCAAGGGAUGGUGUCAAAUUCGGCGAAACCUAAGCGCCCGCCCGGGCGUAUGGCAACGCUGAGCCAAGCUUCGGCGCCUGCGCCGAUGAAGGUGUAGGGACUAGACGGCACCCACCUAAGGCUAACGUUAUGGUGAAGGCAUAGUCAAGGGAGUGGCGAAAGUCACACAAACCGG [C82U A120G A145U C150U C169A] the reverse-splicing fitness was 0.014.
GUGCCUUGCGCCGGGAAACCACGCAAGGGAUGGUGUCAAAUUCGGCGAAACCUAAGCGCCCGCCCGGGCGUAUGGCAACGCUGAGCCAAGCUUCGGCGCCUGCGCCGAUGAAGGUGUAGGGACUAGACGGCACCCACCUAAGGCUAACGUUAUGGUGAAGGCAUAGUCAAGGGAGAGGCGAAAGUCACACAAACCGG [C82U A120G A145U C150U C169A U176A] gave a reverse-splicing fitness of 0.0106.
In the case of GUGCCUUGCGCCGGGAAACCACGCAAGGGAUGGUGUCAAAUUCGGCGAAACCUAAGCGCCCGCCCGGGCGUAUGGCAACGCUGAGCCAAGCUUCGGCGCCUGCGCCGAUGAAGGUGUAGGGACUAGACGGCACCCACCUAAGGCUAACGUUAUGGUGAAGGCAUAGUCAAGGGAGCGGCGAAAGUCACACAAACCGG [C82U A120G A145U C150U C169A U176C], the reverse-splicing fitness is reported as 0.0085.
GUGCCUUGCGCCGGGAAACCACGCAAGGGAUGGUGUCAAAUUCGGCGAAACCUAAGCGCCCGCCCGGGCGUAUGGCAACGCUGAGCCAAGCUUCGGCGCCUGCGCCGAUGAAGGUGUAGGGACUAGACGGCACCCACCUAAGGCUAACGUUAUGGUGAAGGCAUAGUCAAGGGAGGGGCGAAAGUCACACAAACCGG [C82U A120G A145U C150U C169A U176G] gave a reverse-splicing fitness of 0.00326.
GUGCCUUGCGCCGGGAAACCACGCAAGGGAUGGUGUCAAAUUCGGCGAAACCUAAGCGCCCGCCCGGGCGUAUGGCAACGCUGAGCCAAGCUUCGGCGCCUGCGCCGAUGAAGGUGUAGGGACUAGACGGCACCCACCUAAGGCUAACGUUAUGGUGAAGGCAUAGUCGAGGGAGUGGCGAAAGUCACACAAACCGG [C82U A120G A145U C150U C169G] showed a reverse-splicing fitness of 0.0171.
GUGCCUUGCGCCGGGAAACCACGCAAGGGAUGGUGUCAAAUUCGGCGAAACCUAAGCGCCCGCCCGGGCGUAUGGCAACGCUGAGCCAAGCUUCGGCGCCUGCGCCGAUGAAGGUGUAGGGACUAGACGGCACCCACCUAAGGCUAACGUUAUGGUGAAGGCAUAGUCGAGGGAGAGGCGAAAGUCACACAAACCGG [C82U A120G A145U C150U C169G U176A] showed a reverse-splicing fitness of 0.0116.
Variant GUGCCUUGCGCCGGGAAACCACGCAAGGGAUGGUGUCAAAUUCGGCGAAACCUAAGCGCCCGCCCGGGCGUAUGGCAACGCUGAGCCAAGCUUCGGCGCCUGCGCCGAUGAAGGUGUAGGGACUAGACGGCACCCACCUAAGGCUAACGUUAUGGUGAAGGCAUAGUCGAGGGAGCGGCGAAAGUCACACAAACCGG [C82U A120G A145U C150U C169G U176C] has a reverse-splicing fitness of 0.0139.
GUGCCUUGCGCCGGGAAACCACGCAAGGGAUGGUGUCAAAUUCGGCGAAACCUAAGCGCCCGCCCGGGCGUAUGGCAACGCUGAGCCAAGCUUCGGCGCCUGCGCCGAUGAAGGUGUAGGGACUAGACGGCACCCACCUAAGGCUAACGUUAUGGUGAAGGCAUAGUCGAGGGAGGGGCGAAAGUCACACAAACCGG [C82U A120G A145U C150U C169G U176G] showed a reverse-splicing fitness of 0.00343.
In the case of GUGCCUUGCGCCGGGAAACCACGCAAGGGAUGGUGUCAAAUUCGGCGAAACCUAAGCGCCCGCCCGGGCGUAUGGCAACGCUGAGCCAAGCUUCGGCGCCUGCGCCGAUGAAGGUGUAGGGACUAGACGGCACCCACCUAAGGCUAACGUUAUGGUGAAGGCAUAGUCUAGGGAGUGGCGAAAGUCACACAAACCGG [C82U A120G A145U C150U C169U], the reverse-splicing fitness is reported as 0.0143.
GUGCCUUGCGCCGGGAAACCACGCAAGGGAUGGUGUCAAAUUCGGCGAAACCUAAGCGCCCGCCCGGGCGUAUGGCAACGCUGAGCCAAGCUUCGGCGCCUGCGCCGAUGAAGGUGUAGGGACUAGACGGCACCCACCUAAGGCUAACGUUAUGGUGAAGGCAUAGUCUAGGGAGAGGCGAAAGUCACACAAACCGG [C82U A120G A145U C150U C169U U176A] showed a reverse-splicing fitness of 0.022.
GUGCCUUGCGCCGGGAAACCACGCAAGGGAUGGUGUCAAAUUCGGCGAAACCUAAGCGCCCGCCCGGGCGUAUGGCAACGCUGAGCCAAGCUUCGGCGCCUGCGCCGAUGAAGGUGUAGGGACUAGACGGCACCCACCUAAGGCUAACGUUAUGGUGAAGGCAUAGUCUAGGGAGCGGCGAAAGUCACACAAACCGG [C82U A120G A145U C150U C169U U176C] showed a reverse-splicing fitness of 0.0154.
